Experiment: yeast display, Sf9 membrane polyspecificity reagent, FACS + sequencing; frameworks hold sequencing errors
Summary of the method: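 A synthetic nanobody library was expressed on Saccharomyces cerevisiae BJ5465 by galactose induction for 36–48 hours. The library was stained for 1 hour at 4 °C with 10% biotinylated, detergent-solubilized Sf9 membrane reagent and enriched with streptavidin microbeads before FACS. Low and high (top ~1%) gates were set on anti-HA fluorescence for expression and streptavidin fluorescence for reagent binding, and each polyreactivity label reflects the gate of origin.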

Sequence | polyreactivity (PSR sort gate)
QVQLVESGGGLVQAGGSLRLSCAASGFIFTGYTMGWYRQAPGKERELVARISSGDSTKYADSVKGRFTISRDNAKNNVYLQMNSLKPEDTAVYYCAAYIRNARNGTTYDYWGQGTQVTVSS | high polyreactivity
QVQLVESGGGLVQAGGSLRLSCAASGFIFTHYAMGWYRQAPGKERELVAAISRRGGSTYYADSVKGRFTISRDNAKNTVYLQMNSLKPEDTAVYYCAADNYDAWYWDYYWGQGTQVTVSS | high polyreactivity
QVQLVESGGGLVQAGGSLRLSCAASGFIFTKYAMGWYRQAPGKERELVAVITSRGTRTYYADSVKGRFTISRDNAKNTVYLQMNSLKPEDTAVYYCAADYQGPYDYWGQGTQVTVSS | high polyreactivity
QVQLVESGGGLVQAGGSLRLSCAASGFIFTNVMGWYRQAPGKERELVAAISGRGTSTYYADSVKGRFTISRDNAKNTVYLQMNSLKPEETAVYYCAAASYQSRYWNYYWGQGTQVTVSS | high polyreactivity
QVQLVESGGGLVQAGGSLRLSCAASGFIFTPYAMGWYRQAPGKEREFVATITWSGGSTNYADSVKGRFTISRDNAKNTVYLQMNSLKPEDTAVYYCNADTWSPNDYWGQGTQVTVSS | low polyreactivity
QVQLVESGGGLVQAGGSLRLSCAASGFIFTPYAMGWYRQAPGKERELVAAISKSGADTFYADSVKGRFTISRDNAKNTVYLQMNSLKPEDTAVYYCAADDYWGYDYWGQGTQVTVSS | high polyreactivity
QVQLVESGGGLVQAGGSLRLSCAASGFIFTPYAMGWYRQAPGKERELVAAISWIGGRTYYADSVKGRFTISRDNAKNTVYLQMHSLKPEDTAVYYCNARTHGWPYSRYYYWGQGTQVTVSS | high polyreactivity
QVQLVESGGGLVQAGGSLRLSCAASGFIFTQNAMGWYRQAPGKERELVAVIRWNGGSTYYADSVKGRFTISRDNAKNTVYLQMNSLKPEDTEVYYCAAEFLWIVDYWGQGTQVTVSS | low polyreactivity
QVQLVESGGGLVQAGGSLRLSCAASGFIFTRNAMGWYRQAPGKERELVAAITSSGGSTYYADSVKGRFTISRDNAKYTVYLQMNCLKPEDTAVYYFAADDIQTYGDDYWGQGTQVTVSS | high polyreactivity
QVQLVESGGGLVQAGGSLRLSCAASGFIFTRNVMGWNRQAPGKERELVAAISSGGRTYYADSVKGRFTISRDNAKKTVYFQMISLKPEDTAVYYCNAGNRGVYRYDYWGQGTQVTVSS | high polyreactivity
QVQLVESGGGLVQAGGSLRLSCAASGFIFTSNAMGWYRQAPGKERELVAAITKSGGSTYYADSVKGRFTISRDNAKNTVYLQMNSLKPEDTAVYYCATRGVRRYYKTMNYWGQGTQVTVSS | high polyreactivity
QVQLVESGGGLVQAGGSLRLSCAASGFIFTSYALGWYRQAPGKEREFFAAISRRGGSTYYADSVKGRFTISRDNAKNTVYLQMNSLKPEDTAVYYCAADPKQHSGYDYWGQGTQVTVSS | high polyreactivity
QVQLVESGGGLVQAGGSLRLSCAASGFIFTSYAMGWYRQAPGKERELVAAITDGGSTNYADSVKGRFTISRDNAKNTVYLQMNSLKPEDTAVFYCAADGFKTVLPEYDYWGQGTQVTVSS | low polyreactivity
QVQLVESGGGLVQAGGSLRLSCAASGFIFTSYDMGWYRQAPWKEREFVAAISWSGDRTYYADSVKGRFTISRDYAKNTVYLQMNSLKPEDTAVYYCAADRSIRRYYGYDYWGQGTQVTVSS | high polyreactivity
QVQLVESGGGLVQAGGSLRLSCAASGFIFTTNAMGWYRQAPGKERELVAAITRSGGSTYADSVKGRFTLSRDNAKNTVYLQMNSLKPEETAVYYCNADGYFWGQGTQVTVSS | low polyreactivity
QVQLVESGGGLVQAGGSLRLSCAASGFIFTVNAMGWYRQAPGKERELVAAITQSGGNTSYADSVKGRFTISRDNAKNTVYLQMNSLKPEDTAVYYCNASSDTSRYGVSTYYYWGQGTQVTVSS | low polyreactivity

— the nanobody polyreactivity screen of Harvey et al. (2022)
